“Also recorded” adds a separate entry of the source.
Legend:
[1] = target: human herpesvirus glycoprotein B (gB) (Human herpesvirus 2, UniProt P08666); experiment: Immunoprecipitation-Mass Spectrometry (IP-MS) target identification; format: binding
Protocol: FIG. 7A-7B. Immunoprecipitation-Mass Spectrometry (IP-MS) was performed to identify the binding targets of 22D10, 33B8, and BMPC-23 antibodies.
IP-MS was performed to identify the targets of 22D10, 33B8, and BMPC-23 antibodies.

[2] = target: glycoprotein B of HSV-1 (gB-1) (Human herpesvirus 1, UniProt P10211); experiment: Luminex multiplex assay, binding to gB-1; settings: Table 3 summary
Protocol: FIGS. 9A and 9B are graphs of median fluorescence intensity (MFI) versus IgG concentration (ng/ml), showing the binding of various recombinant antibodies to gB-1 as measured by Luminex multiplex assay.
BMPC-23 binds HSV-1 gB (gB-1). The gB-1 binding of the antibodies was determined by Luminex multiplex assay. Mixtures of antigen (gB-1)-conjugated microspheres (1,000 counts each) were added to each well of 96-well filter plates (Millipore). After washing with PBS containing 1% BSA, 0.05% Tween 20 and 0.05% NaN3, serially diluted recombinant antibodies (5E7, 19G7, 18G4, 22E10, 3A2, 17G3, 22D10, 32H6, 33B8, 25H7, BMPC-23, and S5V2-29) were added to the plates and incubated for 2 hours at room temperature, with mild agitation of the plates. Samples were diluted in PBS containing 1% cow milk, 1% BSA, 0.05% Tween 20 and 0.05% NaN3. After washing, PE goat anti-mouse IgG was added to the plates and incubated for 1 hour at room temperature with mild agitation. After washing, microspheres were resuspended in PBS containing 1% BSA, 0.05% Tween 20 and 0.05% NaN3 and fluorescent signals from each microsphere were measured in a Bio-Plex® 3D machine.
Finding gB-1 specific HSV antibodies. After Nojima culture (single B-cell culture), HSV-specific antibodies were cloned from germinal center B cells and tested for binding to HSV-1 gB-1 by Luminex multiplex assay as described above. FIGS. 9A and 9B show the gB-1 binding results for 10 antibodies in comparison with BMPC-23. With the exception of BMPC-23, the antibodies in Table 3 were derived from germinal center B cells (lymph nodes) taken 15-17 days after primary vaccination with ΔgD-2. BMPC-23 was derived from bone marrow plasmacytes taken 2 weeks post-boost with ΔgD-2. Nucleotide sequences and amino acid sequences for the heavy-chains and light chains are shown in Table 4, as are the amino acid sequences for the light chain and heavy chain CDR1, CDR2, and CDR3.

[3] = test system: HSV-2 G infected cell lysates; experiment: ELISA binding of recombinant antibodies to HSV-2 G infected cell lysates; parameters: species or system HSV-2 G strain; settings: for Binding of recombinant antibodies to HSV-2 G lysates: ELISA, recombinant antibodies expressed in Expi293F cells; for Binding to HSV-lysate: Table 3 summary
Protocol: Binding of recombinant antibodies to HSV-2 G lysates was tested by ELISA. Both heavy and light chain V(D)J rearrangements were amplified from selected single B-cell culture wells (22D10, 32H6, 33B8, and 35H7) by standard RT-PCR. These cloned V(D)J rearrangements were introduced into expression vectors. Recombinant antibodies were obtained by co-transfection of these expression vectors into Expi293F cells. ≥4 mg of purified IgGs was obtained (not shown). […]
Briefly, mice were vaccinated with ΔgD-2 and then 16 days after vaccination, the draining, inguinal lymph nodes were harvested. GC B cells were isolated from these tissues and were cultured in Nojima cultures. Although overall cloning efficiency of GC B cells from these (shipped) tissues was lower than those from freshly isolated tissues (6% vs. 20%), 50 GC clones were obtained that were specific to HSV-2 G strain (HSV-2 G or HSV2-G) lysate. GC B cells from inguinal lymph nodes of mice vaccinated with ΔgD-2 were sorted directly into 96-well plates (1 cell/well). These GC B cells were then cultured in the presence of NB-21.2D9 feeder cells. After culture, presence of IgG was first determined by ELISA, and then the reactivity of culture supernatant IgG against HSV-2 G lysates (HSV-2 G) and uninfected Vero lysates were tested by ELISA.
Based on the obtained V(D)J sequences from each B-cell culture, paired heavy and light chains were re-expressed (as recombinant mouse IgG1 and IgG2c antibodies) in Expi293F cells (Kuraoka et al. Immunity 2016; DiLillo et al. Nature Medicine 2013). […] As expected, all recombinant antibodies reacted specifically with HSV-2 G lysates (FIG. 3). […] Binding of recombinant antibodies to HSV-2 G lysates was tested by ELISA. Both heavy and light chain V(D)J rearrangements were amplified from selected single B-cell culture wells (22D10, 32H6, 33B8, and 35H7) by standard RT-PCR. These cloned V(D)J rearrangements were introduced into expression vectors. Recombinant antibodies were obtained by co-transfection of these expression vectors into Expi293F cells. ≥4 mg of purified IgGs was obtained (not shown). […] These recombinant antibodies (≥4 mg each) were tested for identification of reacting antigen(s), in an in vitro FcγRIV activation assay (Promega FcγRIV ADCC Reporter Bioassay)(FIG. 4), and in vivo protection assay. […]

uninfected Vero lysate = experiment: ELISA binding to control uninfected Vero lysate
Protocol: Binding of recombinant antibodies to HSV-2 G lysates was tested by ELISA. Both heavy and light chain V(D)J rearrangements were amplified from selected single B-cell culture wells (22D10, 32H6, 33B8, and 35H7) by standard RT-PCR. These cloned V(D)J rearrangements were introduced into expression vectors. Recombinant antibodies were obtained by co-transfection of these expression vectors into Expi293F cells. ≥4 mg of purified IgGs was obtained (not shown).
Based on the obtained V(D)J sequences from each B-cell culture, paired heavy and light chains were re-expressed (as recombinant mouse IgG1 and IgG2c antibodies) in Expi293F cells (Kuraoka et al. Immunity 2016; DiLillo et al. Nature Medicine 2013). […] As expected, all recombinant antibodies reacted specifically with HSV-2 G lysates (FIG. 3). […] Binding of recombinant antibodies to HSV-2 G lysates was tested by ELISA. Both heavy and light chain V(D)J rearrangements were amplified from selected single B-cell culture wells (22D10, 32H6, 33B8, and 35H7) by standard RT-PCR. These cloned V(D)J rearrangements were introduced into expression vectors. Recombinant antibodies were obtained by co-transfection of these expression vectors into Expi293F cells. ≥4 mg of purified IgGs was obtained (not shown). […]

HSV-2 = experiment: Passive transfer in vivo protection assay, lethal HSV-2 challenge; parameters: species or system mice; settings: for Mice protected from lethal challenge: IgG2c version, overall results from 2 independent experiments; for Mice protected from lethal challenge / Protection against lethal HSV-2 challenge: passive transfer; for in vivo protection: Table 3 summary; for Protection against lethal HSV-2 challenge: as IgG2c, overall survival, epithelial and neurological assays
Protocol: Mice were prime-boost immunized with ΔgD-2 and the spleens, draining lymph nodes or bone marrow were isolated. Germinal center (GC) B cells were then cultured on NB-21.2D9 cells (Nojima cultures). After culture, supernatants were screened for the presence of HSV-lysate binding IgG by ELISA. The V(D)J rearrangements amplified from selected GC B-cell cultures for the B-cell antigen receptor (BCR) repertoire analysis in GC B cell clones among individual mice were sequenced. Then, reconstituted antibodies from selected single GC B cell cultures and from single, bone marrow plasmacytes were evaluated for ability to activate the mFcγRIV in vitro and to protect mice in a passive transfer model.
Both IgG1 and IgG2c forms of 22D10, 33B8, and BMPC-23 antibodies (≥4 mg each) were assessed for reproducibility of in vivo protection assay, and any dependency on Ig isotype for protection. […] To test roles of Ig isotypes on ability to provide protection, IgG1 and IgG2c isotypes of these three antibodies were generated and assessed for ability to activate mFcγRIV signaling (as a measurement for ADCC), and for in vivo protection assay.

B1: 22D10: monoclonal antibody from germinal center B cell; IgH SEQ ID NO: 24, IgL SEQ ID NO: 26 (antibody, V domains shown)
VH: DVQLQESGPALVKPSQTVSLTCTVTGYSITNGNHWWNWIRQVSGSKLEWLGYIRSSGSSDSNPSLKSRISITRDTSKNQLFLHLNSMTTEDIATYYCARGGGLRHYFDYWGQGTTLTVSSA
VL: DIQMTQSPASLSASVGDTVTITCRASGNIHNYLAWYHQKQGKSPQLLVYHAETLTDGVPSRFSGSGSGTQYSLKINSLQPEDFGSYYCQHFWSTPYTFGGGTKLEIKR
modifications: 22D10 heavy chain; 22D10 light chain
Binding target identified by IP-MS [1]: human herpesvirus glycoprotein B (gB) | Target antigens [2]: (not gB) | Binding of recombinant antibodies to HSV-2 G lysates [3]: Retention of HSV-2 G lysate-binding | Binding to HSV-lysate [3]: Yes | Binding to control, uninfected Vero lysate (uninfected Vero lysate): did not bind | Mice protected from lethal challenge (HSV-2): 5/10 | in vivo protection (HSV-2): Yes | Protection against lethal HSV-2 challenge (HSV-2): significant protection; also recorded: provides protection

B2: 33B8: monoclonal antibody from germinal center B cell; IgH SEQ ID NO: 28, IgL SEQ ID NO: 30 (antibody, V domains shown)
VH: EVKLVESGGGLVQPGGSLSLSCATSGFTFTDYYMNWVRQPPGKALEWLGFIRNKANGYTTEYSASVKGRFTISRDNSQSILYLQMNSLRAEDSATYYCACGNYVGYAMDYWGQGTSVTVSSA
VL: DIVMSQSPSSLAVSAGEKVTMSCKSSQSLLNSRTRKNYLAWYQQKPGQSPKLLIYWASTRESGVPDRFTGSGSGTDFTLTISSVQAEDLAVYYCKQSYNLYTFGGGTKLEIKR
modifications: 33B8 heavy chain; 33B8 light chain
Binding target identified by IP-MS [1]: human herpesvirus glycoprotein B (gB) | Target antigens [2]: (not gB) | Binding of recombinant antibodies to HSV-2 G lysates [3]: Retention of HSV-2 G lysate-binding | Binding to HSV-lysate [3]: Yes | Binding to control, uninfected Vero lysate (uninfected Vero lysate): did not bind | Mice protected from lethal challenge (HSV-2): 4/10 | in vivo protection (HSV-2): Yes | Protection against lethal HSV-2 challenge (HSV-2): significant protection; also recorded: provides protection
